Assay [1] has as its target T1, Recombinant human progastrin (human, UniProt P01350 22-101).
T1 construct: 80-residue progastrin (pre-progastrin without the signal peptide); In the cell assays the target is the progastrin secreted by the CRC cell lines; also called hPG; PG
T1 sequence: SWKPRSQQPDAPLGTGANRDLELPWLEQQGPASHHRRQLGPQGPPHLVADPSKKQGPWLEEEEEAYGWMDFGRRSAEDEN
The experiment in a line: SPR (Proteon), MAb captured on anti-mouse IgG, hPG injected. The protocol:
To provide a more absolute quantification of affinity for the monoclonal antibodies, affinity constants were measured using the Proteon Technique (BioRad), according to Nahshol et al., 2008, Analytical Biochemistry 383:52-60, hereby incorporated by reference in its entirety. Briefly, an anti-mouse IgG antibody (50 μg/ml) was first coated on a sensor chip, making sure that the signal detected by the chip after injection of the antibody falls between 10,000 and 11,500 RU (response units). The murine monoclonal antibody to be tested was then injected (typical concentrations: 30 μg/ml). Sufficient binding of the antibody to be tested was determined based on a further signal of at least 500 RU on the sensor chip. A time-course of interaction between monoclonal anti-progastrin antibodies and progastrin was then measured by injecting varying concentrations of progastrin, for example 200, 100, 50, 25, and 12.5 nM, and the level of association detected. Typically, several channels are available to test multiple antibodies in parallel in a single experiment, making it possible to assay binding of test antibodies at varying concentrations of PG in parallel. Typically, one channel is reserved for a murine monoclonal antibody that is not specific to PG, as a control for non-specific binding, and another channel is injected with dilution buffer alone as a baseline for the background signal. Generally, no binding is detectable in the channels injected with non-specific murine antibody. Antibodies displaying a high level of association in this setting, which may result in saturation of the trapped monoclonal antibody by progastrin, can be tested against lower progastrin concentrations (50, 25, 12.5, 6.25 and 3.125 nM), allowing for a more refined measurement.
Affinity constants (KD) were calculated as the ratio between the dissociation constant (kd) and the association constant (ka). Experimental values were validated by analyzing the statistically relevant similarity between experimental curves based on binding measurements and theoretical profiles. The mathematical model used in the Proteon experiments to select whether experimental curves fit with the theoretical model was the Langmuir model, based on a 1:1 interaction between progastrin molecules and anti-progastrin monoclonal antibodies.

Assay [2] addresses T1, Recombinant human progastrin. Briefly: competition ELISA: hPG captured by a C-terminal polyclonal antibody; MAb 3 titrated against 10 µg/ml biotinylated N-terminal anti-hPG polyclonal antibody; streptavidin-HRP, luminescence, n=2. The protocol:
The ability of an anti-hPG monoclonal antibody to compete with an anti-hPG polyclonal antibody for binding to progastrin was determined using an ELISA with a “capture” anti-hPG antibody and a “detection” anti-hPG antibody. Anti-hPG MAb 3 was assayed as follows: 96-well plates were pre-coated with C-terminal progastrin polyclonal antibodies raised against a peptide consisting of residues 71 to 80 of hPG. The plates were then incubated with […] progastrin was incubated, followed by addition of 10 μg/ml biotinylated N-terminal anti-hPG polyclonal antibody, raised against a peptide consisting of the amino acid sequence of SEQ ID NO:25, and increasing concentrations of anti-hPG MAb 3 monoclonal antibody. Binding of the biotinylated N-terminal anti-hPG polyclonal antibody was detected by incubating the plates with streptavidin-HRP followed by OPD, according to standard protocols. Binding was measured by quantifying luminescence.

For assay [3], the target named is T2, Immunogen N2 = SWKPRSQQPDAPLG Ahx Cys KLH (human).
T2 construct: hPG residues 1 to 14 with linker, coupled to the KLH carrier; also called KLH-linked N-terminal peptide
T2 peptide: SWKPRSQQPDAPLG[Ahx]C-{KLH}
The experiment in a line: ELISA of hybridoma supernatants.

Assay [4] deals with T1, Recombinant human progastrin. Briefly: cell-based or functional assay.
Assay [5] shares this target. Briefly: cell-based or functional assay. The source holds these as a separate data set.
The target is the same in assay [6]. Briefly: cell-based or functional assay. The source holds these as a separate data set.
Assay [7] has the same target. Briefly: ELISA on 50 ng coated hPG, antibody titrated, OD 492 nm, n=2. The protocol: After blocking, the wells were washed three times and the primary antibody—the antibody to be assayed—added. For initial screening of fused splenocytes, 50 μL of culture supernatant from each culture to be assayed was added to each well in the plate. In assays performed on monoclonal antibodies, 100 μL of the test antibody in PBS and 0.1% Tween-20 was added to each well. Plates were then incubated for 2 hours at 22° C., after which the primary antibody solution was discarded and replaced, after a wash step (3×100 μL wash solution, as noted above), with blocking solution containing the secondary antibody, which binds the primary antibody and is coupled to an enzyme. The secondary antibody was a goat anti-mouse IgG (Fc) antibody coupled to horseradish peroxidase. […] The reaction was then stopped by adding 50 μL of 4N sulfuric acid and the amount of substrate catalyzed determined by measuring the optical density (O.D.) at 492 nm. […] Samples were scored as positive for anti-PG antibodies if the measured O.D. was between 0.2 and 1.5. […]
Relative affinity of exemplary monoclonal antibodies was measured using the ELISA method described above, in which wells were coated with a peptide solution containing 50 ng progastrin and then incubated in the presence of increasing concentrations of each monoclonal antibody as follows: […]

Assay [8] has the same target. The experiment in a line: cell-based or functional assay. This is another data set of the same source.

Values joined by “and” are separate entries in the source; they are usually repeats but may differ in a detail not shown here. Identical values can stand only once. Non-standard residues stand in square brackets, D forms with d. No end group written: not given here. KLH = keyhole limpet hemocyanin; Ahx = NCCCCCC(=O)O

B1: Anti-hPG MAb 3 (antibody, V domains shown)
VH: EVQLQQSGTVLARPGASVKMSCKASGYIFTSYWVHWVKQRPGQGLEWIGGFYPGNSDSRYNQKFKGKATLTAVTSASTAYMDLSSLTNEDSAVYFCTRRDSPQYWGQGTTLTVSS
VL: DVLMTQTPLSLPVSLGDQASISCRSSQSIVHSNGNTYLEWYLQKPGQSPKLLIYKVSNRFSGVPDRFSGSGSGTDFTLKISRLEAEDLGVYYCFQGSHVPFTFGGGTKLEIK
notes: Mouse IgG1, hybridoma 6B5B11C10, raised against immunogen N2; also called 6B5B11C10
Regarding B1, the Kd in assay [1] was determined as 6.4 nM. Besides, in assay [2], the “IC50 (read off the curve)” value was around 4000 ng/mL. Besides, the binding result in assay [3] is “binds”.

B2: Anti-hPG MAb 19 (antibody, V domains shown)
VH: DVQLQESGPGLVKPSQSLSLTCTVTGYSITSDYAWNWIRQFPGNKLEWMGYISFSGYTSYNPSLKSRISVTRDTSRNQFFLQLTSVTTEDTATYYCAREVNYGDSYHFDYWGQGTIVTVSS
VL: QLALTQSSSASFSLGASAKLTCTLSSQHRTYTIEWYQQQSLKPPKYVMEVKKDGSHSTGHGIPDRFSGSSSGADRYLSISNIQPEDEAIYICGVGDAIKGQSVFVFGGGTKVTVL
notes: Mouse IgG2, hybridoma 1B3B4F11, raised against immunogen N2; also called 1B3B4F11
In the case of B2, the “surviving SW 620 cells, % of control MAb-treated cells (cell numbers - T0)” value (“surviving SW 620 cells, %” below) in assay [4] is 69 % of control. In addition, in assay [1], the dissociation constant Kd was 0.7 nM and 0.779 nM. Also, in assay [5], the “surviving HCT-116 cells, % of control MAb-treated cells (cell numbers - T0)” value (“surviving HCT-116 cells, %” for short) was 88 % of control. Besides, the “surviving LS 174T cells, % of control MAb-treated cells (cell numbers - T0)” value (“surviving LS 174T cells, %” for short) in assay [6] is 84.5 % of control.

B3: Anti-hPG MAb 4 (antibody, V domains shown)
VH: QVQLQQSGAELMKPGASVKISCKATGYTFSSSWIEWLKQRPGHGLEWIGEFLPGSGSTDYNEKFKGKATFTADTSSDTAYMLLSSLTSEDSAVYYCATDGNYDWFAYWGQGTLVTVSA
VL: DLVMTQTPLSLPVSLGDQASISCRSSQSLVHSSGVTYLHWYLQKPGQSPKLLIYKVSNRFSGVPDRFSGSGSGTDFTLKISRVEAEDLGVYFCSQSTHVPPTFGSGTKLEIK
notes: Mouse IgG1, hybridoma 20D2C3G2, raised against immunogen N2; also called 20D2C3G2
B3: the half-maximal effective concentration (EC50 (read off the curve)) in assay [7] was around 8 ng/mL. Further, the equilibrium dissociation constant (Kd) in assay [1] worked out at 3.5 nM. The binding result in assay [3] was “binds”.

B4: Anti-hPG MAb 16 (antibody, V domains shown)
VH: QVQLQQSGAELVKPGASVKLSCKASGYTFTSYYMYWVKQRPGQGLEWIGEINPSNGGTNFNEKFKSKATLTVDKSSSTAYMQLSSLTSEDSAVYYCTRGGYYPFDYWGQGTTLTVSS
VL: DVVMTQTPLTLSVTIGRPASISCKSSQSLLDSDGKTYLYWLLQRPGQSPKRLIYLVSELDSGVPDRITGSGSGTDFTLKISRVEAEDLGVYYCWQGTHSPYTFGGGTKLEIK
notes: Mouse IgG1, hybridoma 1E9D9B6, raised against immunogen N2; also called 1E9D9B6
Turning to B4, the “EC50 (read off the curve)” value in assay [7] is around 2 ng/mL. Further, the “surviving SW 620 cells, %” value in assay [4] is 58 % of control. Besides, the equilibrium dissociation constant (Kd) in assay [1] is 0.2 nM and 0.278 nM. In addition, the “surviving LS 174T cells, %” value in assay [6] was 61 % of control.

B5: Anti-hPG MAb 13 (antibody, V domains shown)
VH: EVQLVESGGGLVQPGGSLKLSCAASGFIFSSYGMSWVRQSPDRRLELVASINTFGDRTYYPDSVKGRFTISRDNAKNTLYLQMTSLKSEDTAIYYCARGTGTYWGQGTTLTVSS
VL: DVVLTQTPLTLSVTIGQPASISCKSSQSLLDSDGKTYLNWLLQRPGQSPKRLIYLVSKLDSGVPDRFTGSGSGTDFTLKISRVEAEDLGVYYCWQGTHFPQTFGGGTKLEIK
notes: Mouse IgG1, hybridoma 2C6C3C7, raised against immunogen C1; also called 2C6C3C7
As to B5, the “surviving SW 620 cells, %” value in assay [4] was 48 % of control. Also, in assay [1], the Kd is 0.6 nM and 0.612 nM. Further, the “surviving HCT-116 cells, %” value in assay [5] is 36 % of control. For the same molecule, the “surviving LS 174T cells, %” value in assay [6] is 58 % of control.

B6: Anti-hPG MAb 8 (antibody, V domains shown)
VH: EVQLVESGGGLVKPGGSLKLSCAASGFTFTTYAMSWVRQTPEKRLEWVATISSGGTYTYYPDSVKGRFTISRDNAKNALYLQMSSLRSEDTAMYYCATQGNYSLDFWGQGTSLTVSS
VL: DIVMTQAASSNPVTLGTSASISCRSSKSLRHTKGITFLYWYLQKPGQSPQLLIYQMSNLASGVPDRFSSSGSGTDFTLRISRVEAEDLGVYYCAQNLELPLTFGAGTKLELK
notes: Mouse IgG1, hybridoma 1C10D3B9, raised against immunogen C1; also called 1C10D3B9
B6: in assay [4], the “surviving SW 620 cells, %” value is 40 % of control. In addition, the equilibrium dissociation constant (Kd) in assay [1] is 0.1 nM and 0.108 nM. Also, the “surviving HCT-116 cells, %” value in assay [5] is 62 % of control. The “surviving LS 174T cells, %” value in assay [6] was 42 % of control. Moreover, the “viable LS174T cells (CellTiter 96 absorbance at 490 nm), % of control MAb; anti-hPG MAb 8 pre-incubated with 20-fold molar excess hPG” value in assay [8] was 148 % of control.

Values taken from patent US20110117086A1 (LES LABORATOIRES SERVIER, published 2011).
